The record followed here is patent US20050209137A1 (published 2005).

Assay [1] deals with T1, recombinant human leptin receptor leptin-binding domain (LBD), amino acids 428-635 of the human leptin … (human, UniProt P48357 428-635).
T1 construct: also called hLBD; human LBD
T1 sequence: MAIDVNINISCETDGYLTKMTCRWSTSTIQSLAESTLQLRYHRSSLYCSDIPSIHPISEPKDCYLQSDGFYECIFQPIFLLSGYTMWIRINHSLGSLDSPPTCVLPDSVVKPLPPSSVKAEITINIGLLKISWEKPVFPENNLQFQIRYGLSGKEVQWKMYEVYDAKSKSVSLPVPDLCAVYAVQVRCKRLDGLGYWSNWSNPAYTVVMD
Nature of the assay: SPR. For orientation: Surface plasmon resonance follows binding to a sensor surface in real time, without labels.

Assay [2] addresses long form of human leptin receptor, stably transfected in BAF/3 cells (cell homogenate) (human) (UniProt P48357). Nature of the assay: competition with 125I-hLEP, homogenate of BAF/3 cells with long-form human leptin receptor.
Assay [3] addresses T2, recombinant chicken leptin receptor binding domain (chLBD), amino acids 419-624 of the chicken leptin receptor (chicken).
T2 construct: also called CLBD
T2 chain: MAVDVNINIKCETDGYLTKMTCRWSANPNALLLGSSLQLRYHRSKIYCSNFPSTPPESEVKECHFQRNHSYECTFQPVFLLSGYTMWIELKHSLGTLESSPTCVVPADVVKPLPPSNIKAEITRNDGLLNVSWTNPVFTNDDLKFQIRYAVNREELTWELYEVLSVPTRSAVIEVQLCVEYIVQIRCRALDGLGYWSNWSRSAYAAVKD
Nature of the assay: inhibition of binding of 125I-hLep to chLBD by unlabeled leptin; the curve only falls to about 66 % at the highest concentration shown (about 10^-4.2 M), the printed value lies beyond the range. As for the experimental part: Binding Assays—Radiolabeled human ¹²⁵I-leptin served as a ligand, and other (human, ovine, and chicken) nonlabeled leptins served as competitors. The experiments were conducted using either recombinant LBD or homogenates of BAF/3 cells stably transfected with the long form of hLEP receptor. In the latter case, the cells were cultured in Dulbecco's modified Eagle's medium supplemented with 5% fetal calf serum in the presence of IL-3 to minimize leptin-receptor down-regulation until a concentration of 10⁶ cells/ml was reached. Then the cells were spun and stored at −70° C. […] Each tube contained 150 or 200 μl of reaction buffer in the case of the assay with the cells or recombinant LBD, respectively, 100 μl of ¹²⁵I-hLEP (100,000 cpm for cells or 180,000 cpm for binding domain assays), and 100 μl of different leptin solutions (providing 0-5000 ng/tube) in the reaction buffer, and the reaction was started by addition of 150 μl of cell homogenate or 100 μl of LBD (20 ng). The tubes were incubated for 24 h at room temperature. Then the leptin receptor complex was precipitated by adding 250 μl of 1% (w/v) bovine immunoglobulin and 500 μl of 20% (w/v) polyethylene glycol. After thorough mixing, the tubes were incubated for 20 min at 4° C. and centrifuged at 12,000×g for 15 min at 4° C. Then supernatant was carefully aspirated, and the precipitates were counted in a Kontron ?-counter. […]

B1: chicken leptin (ligand, UniProt O42164 19-163, looked up)
chain: VPCQIFQDDTKTLIKTIVTRINDISHTSVSAKQRVTGLDFIPGLHPILSLSKMDQTLAVYQQVLTSLPSQNVLQIANDLENLRDLLHLLAFSKSCSLPQTSGLQKPESLDGVLEASLYSTEVVALSRLQGSLQDILQQLDISPEC
notes: also called chLeptin; ChLeptin
Broadly, the Kd is the constant that tells how readily two partners part at equilibrium. A word on the koff: it is the rate constant with which the complex falls apart. As usually defined, the kon is the second-order rate constant of association. For orientation: IC50 means the concentration that gives 50% inhibition. For B1, in assay [1], the equilibrium dissociation constant (Kd) came to 380 nM, the koff is 0.0052 s⁻¹ and the kon came to 13500 M⁻¹ s⁻¹. The molecule further displayed a fold lower capacity to displace than hLEP in assay [2] of 20 fold. The IC50 in assay [3] came out at 88 µM.
